Assay results from patent US20040126882A1, “Regulatable, catalytically active nucleic acids” (priority 2000, published 2004).
Where two headings read alike, the source gives them in different places.

How the values were obtained:
[1] = tested on: Cyt 18-dependent population; experiment: Specificity of activation of Cyt18-dependent ribozymes by proteins; format: biochemical; details: Cyt18 denatured by heating or SDS
Method: (§1) Protein inactivation. Standard ligation assays were performed as described above, but in the presence of protein samples that had been pre-treated as follows. Cyt18 protein was denatured by heating for 10 min at 70° C. or by the addition of 6% SDS (0.7% SDS in ligation reaction). Lysozyme was heated 10 min at 100° C. or incubated 10 min at room temperature in the presence of 2 mM DTT (0.3 mM DTT final reaction) without inactivating the protein. The protein was successfully inactivated by heating for […] at 70° C. in the presence of 2 mM DTT. Ligation reactions were performed with 1.3 μM protein in 15 μl reactions incubated 5 min at 25° C.

[2] = molecular target: group I self-splicing intron; details: cited from earlier work
[3] = tested on: lysozyme-dependent clones; experiment: Specificity of activation of lysozyme-dependent ribozymes by proteins; format: biochemical
Method: as §1

B1: Cyt18: tyrosyl tRNA synthetase from Neurospora mitochondria (protein, UniProt P12063 33-669, looked up)
Tyrosine--tRNA ligase, …: LRREFGPKYTAKINEAEENWQARAEAIKKGKKQNTWDLFEERGYVKDTAGTKEHIAELMRTRRIGAYVGIDPTAPSLHVGHLLPLMPLFWMYLEGYKAFTLIGGSTAKIGDPTGRLKSRDHLSSSDATMNMTKIHYQLKKLWENVDTQMRARGYEADWARKRGIVNNNHWWNKQPMLEVLRRVGHALRIGPMLSRDTVKNKMTQGDGVSFAEFTYPIMQGWDWFELFYQQGVQMQIGGSDQYGNIISGLEVVKAARESEPDPQERKYVTPKTALDECVGFTVPLLTDSSGAKFGKSAGNAIWLDPYQTSVFDFYGYFVRRSDQEVENLLKLFTFMPISEITKTMEEHIKDPSKRVAQHTLAREVVTLVHGKQEASAAEDQHRMMYTGQMTIPQVSRAKDAATGGDQYKTISDQPVTLNNAPRIDMILPESLIMGKSIGRILYAAGLASSTTEGHKLAAAQGCYVGGAHRAGGENVTMNPDLISFMPVKLWFPGETQRYLINGNLLILRKGKHNVRVIQMVSDVEYAASGQTYPGQSFTGAVRKLNEIMKNLKEKKLTPEEAKNAVNELQKSSQEKQQGQQIIFPEEKSRQKKDMETKLKQEMIASVKTIDGMMDEKPSVRGDGVKKQTQDDRDPYKW
[1]
  activation of ribozyme catalysis by denatured Cyt18: unable to activate
[2]
  Kd for group I self-splicing intron: femptomolar range
[3]
  activation of lysozyme-dependent ribozyme by other proteins: inactive

B2: lysozyme from human milk: lysozyme from human milk (protein, UniProt P61626 19-148, looked up)
Lysozyme C: KVFERCELARTLKRLGMDGYRGISLANWMCLAKWESGYNTRATNYNAGDRSTDYGIFQINSRYWCNDGKTPGAVNACHLSCSALLQDNIADAVACAKRVVRDPQGIRAWVAWRNRCQNRDVRQYVQGCGV
[3]
  activation of lysozyme-dependent ribozyme by other proteins: inactive

B3: turkey lysozyme: extremely homologous (98%) turkey lysozyme (protein, UniProt P00703 19-147, looked up)
Lysozyme C: KVYGRCELAAAMKRLGLDNYRGYSLGNWVCAAKFESNFNTHATNRNTDGSTDYGILQINSRWWCNDGRTPGSKNLCNIPCSALLSSDITASVNCAKKIASGGNGMNAWVAWRNRCKGTDVHAWIRGCRL
[3]
  activation of lysozyme-dependent ribozyme by other proteins: cross-activation
[3]; listed as turkey egg white lysozyme
  activation of lysozyme-dependent ribozyme by other proteins: activated
